Assay results: the supplement of paper PMC7877785
± gives the uncertainty stated by the source.

Assay: self-splicing fitness, log relative to wild type (ln ratio); higher = more splicing; Tetrahymena group I intron in knt gene, E. coli kanamycin selection, DiMSum; sequences stand for … in CUCUCU…GGAGGGAAAAGUUAUCAGGCAUGCACCUGGUAGCUAGUCUUUAAACCAAUAGAUUGCAUCGGUUUAAAAGGCAAGACCGUCAAAUUGCGGGAAAGGGGUCAACAGCCGUUCAGUACCAAGUCUCAGGGGAAACUUUGAGAUGGCCUUGCAAAGGGUAUGGUAAUAAGCUGACGGACAUGGUCCUAACCACGCAGCCAAGUCCUAAGUCAACAGAUCUUCUGUUGAUAUGGAUGCAGUUCACAGACUAAAUGUCGGUCGGGGAAGAUGUAUUCUUCUCAUAAGAUAUAGUCGGACCUCUCCUUAAUGGGAGCUAGCGGAUGAAGUGAUGCAACACUGGAGCCGCUGGGAACUAAUUUGUAUGCGAAAGUAUAUUGAUUAGUUUUGGAGUACUCGUGGUCG
Summary of the method: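 DiMSum derived fitness as the error-weighted combination of fold changes across replicates, kanamycin versus no kanamycin, normalised to wild type. E. coli BL21(DE3) held the library, which randomised all eight P1ex-region intron nucleotides within the knt kanamycin-resistance gene on pET-22b(+). Six replicate transformations grew overnight at 37°C or 30°C on LB agar with or without 25 μg/mL kanamycin, also containing 100 μg/mL carbenicillin, 50 μM IPTG and 0.2% rhamnose, and pooled colonies were amplicon-sequenced on an Illumina HiSeq 2500.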

Sequence	self-splicing fitness (ln) (30 °C)	self-splicing fitness (ln) (37 °C)
AGAAAGCAAUAUUACGAAGG	-3.59 ± 0.25	-1.74 ± 0.2
UGUUAGCAAUAUUACGUCCA	-0.514 ± 0.071	0.305 ± 0.13
GUAUAGCAAUAUUACGGAAG	–	-1.92 ± 0.27
GGGAAGCAAUAUUACGUAAU	-1.88 ± 0.14	-0.632 ± 0.22
GGUAAGCAAUAUUACGUUGG	-2.59 ± 0.38	-1.99 ± 0.39
UUAUAGCAAUAUUACGGCCG	-0.763 ± 0.48	-0.565 ± 0.37
GCCUAGCAAUAUUACGGCUU	-3.8 ± 0.22	-1.08 ± 0.16
GCUCAGCAAUAUUACGACGU	0.0949 ± 0.072	0.267 ± 0.079
GCCCAGCAAUAUUACGAAAC	-1.34 ± 0.058	-0.851 ± 0.078
AAUUAGCAAUAUUACGACCU	0.197 ± 0.19	0.333 ± 0.21
AAGCAGCAAUAUUACGGACG	-2.62 ± 0.14	-0.565 ± 0.14
GGUCAGCAAUAUUACGGGAU	-1.12 ± 0.16	-2.85 ± 0.38
CUCCAGCAAUAUUACGGGAA	-1.92 ± 0.086	-0.479 ± 0.093
AUGGAGCAAUAUUACGGAUC	-2.51 ± 0.25	-2.57 ± 0.36
UAUCAGCAAUAUUACGGACU	-0.533 ± 0.058	-0.127 ± 0.071
AGGUAGCAAUAUUACGAAGG	-3.908 ± 0.034	-2.86 ± 0.046
CUCCAGCAAUAUUACGUGGU	-3.42 ± 0.12	-3.19 ± 0.15
CACCAGCAAUAUUACGAAGG	-1.1 ± 0.046	-0.304 ± 0.077
CGCGAGCAAUAUUACGGUCA	-2.23 ± 0.17	-1.63 ± 0.15
CUGCAGCAAUAUUACGAGCU	-2.93 ± 0.18	-2.25 ± 0.21
UGGCAGCAAUAUUACGUUAG	-0.283 ± 0.087	0.37 ± 0.12

Sequence	self-splicing fitness (ln) (30 °C)	self-splicing fitness (ln) (37 °C)
GCUAAGCAAUAUUACGAAAG	-0.97 ± 0.14	-1.09 ± 0.21
CUUCAGCAAUAUUACGGGGG	-3.72 ± 0.21	-2.23 ± 0.26
CUAAAGCAAUAUUACGAGGA	-4.32 ± 0.29	-1.62 ± 0.27
GUGCAGCAAUAUUACGUUCU	-1.1 ± 0.1	0.673 ± 0.097
AUAGAGCAAUAUUACGUUGG	-4.04 ± 0.25	-2.51 ± 0.19
UAUGAGCAAUAUUACGUGUA	-2.13 ± 0.16	-1.32 ± 0.12
GUUCAGCAAUAUUACGCCAU	-2.66 ± 0.21	-1.99 ± 0.14
GGGCAGCAAUAUUACGGAGA	-4.44 ± 0.46	-2.56 ± 0.22
UGAAAGCAAUAUUACGCUGU	-3.67 ± 0.19	-1.73 ± 0.17
GCCGAGCAAUAUUACGGGAG	-3.67 ± 0.24	-2.18 ± 0.24
UCUCAGCAAUAUUACGCUAC	-3.11 ± 0.35	-2.14 ± 0.41
CUACAGCAAUAUUACGACAG	-0.672 ± 0.088	0.096 ± 0.11
ACUUAGCAAUAUUACGUGCG	-1.29 ± 0.1	0.152 ± 0.15
GCCGAGCAAUAUUACGGUGG	-3.52 ± 0.16	-3.27 ± 0.23
CCCCAGCAAUAUUACGGAUG	-1.96 ± 0.064	-1.08 ± 0.067
ACGAAGCAAUAUUACGGGCG	-1.15 ± 0.072	-0.126 ± 0.1
CGUGAGCAAUAUUACGUGAC	-4.11 ± 0.36	–
GCGCAGCAAUAUUACGGCAG	-3.47 ± 0.15	-2.85 ± 0.19
GGCUAGCAAUAUUACGUUAA	-1.24 ± 0.091	-0.642 ± 0.12
GGUUAGCAAUAUUACGUGAC	-2.98 ± 0.28	-2.33 ± 0.34
UUGAAGCAAUAUUACGCACC	-2.62 ± 0.34	-1.41 ± 0.4

Sequence	self-splicing fitness (ln) (30 °C)	self-splicing fitness (ln) (37 °C)
GCCCAGCAAUAUUACGUGAG	-0.944 ± 0.043	-0.161 ± 0.056
CCCAAGCAAUAUUACGGACG	-2.8 ± 0.13	-2.17 ± 0.11
UUACAGCAAUAUUACGCAAA	-1.83 ± 0.17	-0.688 ± 0.12
GCUUAGCAAUAUUACGAUAU	-1.67 ± 0.18	-0.39 ± 0.17
AAUCAGCAAUAUUACGCUAA	-0.408 ± 0.089	0.12 ± 0.092
AAGAAGCAAUAUUACGUUAC	-3.33 ± 0.17	-3.57 ± 0.25
CUAGAGCAAUAUUACGUAUC	–	-1.7 ± 0.26
AGUAAGCAAUAUUACGAGCU	-2.23 ± 0.14	-1.98 ± 0.13
CGUAAGCAAUAUUACGCACG	-1.76 ± 0.14	-1.06 ± 0.17
AGUUAGCAAUAUUACGUAUG	-1.57 ± 0.15	-2.67 ± 0.29
CUUGAGCAAUAUUACGAAUG	-1.23 ± 0.12	-0.596 ± 0.19
UCCCAGCAAUAUUACGCGGG	-2.66 ± 0.12	-3.36 ± 0.18
CGGGAGCAAUAUUACGGCAC	-3.74 ± 0.28	-1.62 ± 0.23
UUAGAGCAAUAUUACGCCAU	-2.82 ± 0.32	–
CCAAAGCAAUAUUACGUGGC	-1.62 ± 0.098	-2.29 ± 0.21
ACGCAGCAAUAUUACGGCGU	-3.68 ± 0.16	-2.23 ± 0.14
AAGCAGCAAUAUUACGAGUG	-2.99 ± 0.1	-2.69 ± 0.11
ACCGAGCAAUAUUACGUCAC	-3.34 ± 0.27	-2 ± 0.21
CCGUAGCAAUAUUACGCGAU	-2.48 ± 0.22	-3.66 ± 0.35
CCACAGCAAUAUUACGGACC	-4.45 ± 0.31	-1.54 ± 0.22
AUGUAGCAAUAUUACGUCCG	-2.71 ± 0.13	-1.39 ± 0.12

Sequence	self-splicing fitness (ln) (30 °C)	self-splicing fitness (ln) (37 °C)
GACGAGCAAUAUUACGGCGG	-2.65 ± 0.33	-2.42 ± 0.29
UGAAAGCAAUAUUACGCUUG	-1.8 ± 0.11	-1.32 ± 0.13
GCUCAGCAAUAUUACGUUAU	-1.08 ± 0.12	-0.166 ± 0.12
UUAUAGCAAUAUUACGGGUU	-3.8 ± 0.26	-1.13 ± 0.15
GAGGAGCAAUAUUACGCAGU	-2.89 ± 0.28	-3.66 ± 0.42
AAGGAGCAAUAUUACGGGAC	-2.34 ± 0.23	-2.36 ± 0.41
UCCUAGCAAUAUUACGGUGU	-1.71 ± 0.067	-0.222 ± 0.097
UCCUAGCAAUAUUACGUGCA	-2.86 ± 0.29	-1.72 ± 0.2
AUAUAGCAAUAUUACGCGCU	0.0604 ± 0.24	-0.878 ± 0.38
UAUUAGCAAUAUUACGCAGU	-2.78 ± 0.28	-2.72 ± 0.26
GGACAGCAAUAUUACGACUA	0.148 ± 0.12	-0.612 ± 0.12
CAAAAGCAAUAUUACGCUGG	-2.88 ± 0.19	-1.9 ± 0.17
UCGAAGCAAUAUUACGCCUG	-0.508 ± 0.14	-0.022 ± 0.21
UACAAGCAAUAUUACGCCAU	-3.15 ± 0.17	-2.62 ± 0.22
UCUAAGCAAUAUUACGAAGU	-1.09 ± 0.11	-1.07 ± 0.15
GAUGAGCAAUAUUACGGGUU	-2.39 ± 0.17	-2.6 ± 0.27
CGUUAGCAAUAUUACGAAGA	-2.24 ± 0.29	–
UACGAGCAAUAUUACGGAGU	–	-2.68 ± 0.23
CAUCAGCAAUAUUACGACUG	-0.425 ± 0.084	-0.238 ± 0.098
AGAAAGCAAUAUUACGCAUU	-2.49 ± 0.15	-2.06 ± 0.22
GUCCAGCAAUAUUACGUGUA	-0.96 ± 0.073	0.159 ± 0.077
